Source: publication PMC10724200, “A peptide derived from interleukin-10 exhibits potential anticancer activity and can facilitate cell targeting of gold nanoparticles loaded with anticancer therapeutics” (Communications Chemistry, 2023)
Entries after “also recorded” stand apart in the source; their conditions may differ. Ends that are not written are not given here.

Key:
[1] = target: T1, recombinant receptor human IL-10Ra protein (Homo sapiens, UniProt Q13651); test: Biolayer interferometry kinetic assay, binding to IL-10Ra; settings: for kon: read-out: ka (association constant)
T1 sequence (Q13651 22-578): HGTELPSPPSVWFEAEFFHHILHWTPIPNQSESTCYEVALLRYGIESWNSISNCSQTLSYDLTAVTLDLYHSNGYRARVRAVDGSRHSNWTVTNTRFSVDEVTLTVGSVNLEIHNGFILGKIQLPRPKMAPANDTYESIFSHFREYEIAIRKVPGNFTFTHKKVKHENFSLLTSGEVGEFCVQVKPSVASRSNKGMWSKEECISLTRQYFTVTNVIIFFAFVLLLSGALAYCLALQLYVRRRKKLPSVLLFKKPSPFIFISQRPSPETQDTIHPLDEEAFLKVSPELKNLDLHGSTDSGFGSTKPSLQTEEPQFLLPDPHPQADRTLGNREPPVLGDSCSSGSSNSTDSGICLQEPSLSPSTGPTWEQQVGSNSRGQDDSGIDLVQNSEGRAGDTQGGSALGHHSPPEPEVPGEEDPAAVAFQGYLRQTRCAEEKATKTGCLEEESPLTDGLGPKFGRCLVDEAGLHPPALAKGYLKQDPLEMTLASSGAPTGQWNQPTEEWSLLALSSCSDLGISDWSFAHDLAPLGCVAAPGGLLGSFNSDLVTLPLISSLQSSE
Protocol: Biolayer interferometry (BLI) was applied to analyze peptide–receptor protein interactions. BLI was performed with a ForteBio Octet RED96e System (Sartorius AG, Göttingen, Germany) by using high-precision streptavidin and biosensors. The biosensors were hydrated in a plate for 15 min and then loaded with 10 μg/mL recombinant receptor human IL-10Ra protein and incubated for 150 s. […] After the association step, the biosensor was shifted to the dissociation buffer, phosphate-buffered saline (PBS) with 0.05% Tween20, for dissociation. Dissociation was recorded until equilibrium was reached (120 s).
To measure the binding ability of the designed and negative control peptides (NM25, NK20, NK20a, and control scramble peptide CG20) to the receptor IL-10Ra in vitro, BLI experiments were performed. […] When binding with IL-10Ra, the association constant (ka) of NK20 and NK20a was 1.02 × 10^4 (1/Ms) and 8.14 × 10^3 (1/Ms), respectively. The ka values of the refined peptides were approximately 12-fold higher than that of NM25. […] The equilibrium dissociation constant (KD) of NK20a interactions with IL-1R1was approximately 2000 times greater than that with IL-10Ra, and the calculated dissociation constant of NK20a interactions with IL-1R1 was to be 5000 times greater than that with IL-10Ra interactions (Table 2). […] As a result, NK20a was used for further investigations in this study.
Fig. 3 BLI kinetic assays of the designed peptides binding to the receptor IL-10Ra. Wavelength shift curves show the association and dissociation of the designed peptides (a) NM25, (b) NK20, (c) NK20a, (d) CG20 binding to the IL-10 receptor, and (e) NK20a binding to a control receptor IL-1R1 at various concentrations. Dissociation was recorded at 120 s after the binding started (black dotted line).

BJAB B-lymphoma cells = test: Cell viability assay (CCK-8), B-lymphoma cells; format: cell-based; settings: 50 μg/mL NK20a and/or 10 ng/mL IL-10, 48 h, triplicate
Protocol: BJAB B-lymphoma cell lines were cultured in RPMI 1640 medium supplemented with 10% fetal bovine serum. RAW 264.7 macrophage and BT-474 human breast tumor cell lines were cultured in Dulbecco’s Modified Eagle Medium (DMEM) supplemented with 10% fetal bovine serum, 1% L-glutamine, 100 U/ml penicillin, 100 U/ml streptomycin, and sodium pyruvate. The cells were incubated at 37 °C in a 5% CO2 atmosphere.
For the cell viability assay, B-lymphoma cells were cultured in 96-well plates at a density of 3 × 10^3 cells/well for 24 h. The cells were then treated with 10 ng/mL IL-10 and 50 μg/mL NK20a, and further incubated for 48 h. After incubation, 10 μL of Cell Counting Kit-8 (CCK-8; Enzo Life Sciences, NY, USA) reagent was added, and the cells were incubated at 37 °C for 1 h. Cell viability was quantified by measuring the absorbance at 450 nm by using an ELISA plate reader (CLARIOstar Plus, BMG Labtech, Ortenberg, Germany).
Fig. 4 In vitro binding assay and cytotoxicity study. a B-lymphoma cells were treated with NK20a, and the fluorescence of the treated cells was analyzed through flow cytometry to determine the binding ability of NK20a to the cell surface. The fluorescence distribution of FITC was categorized as treated with NK20a (green) and untreated (red). b Bar chart showing the cell viability of the B-lymphoma cell line treated with 10 ng/mL IL-10, 50 μg/mL NK20a, and both, respectively. […]

RAW 264.7 macrophages = test: Atomic force microscopy of macrophage morphology / activation; format: cell-based; settings: RAW 264.7, AFM; LPS 10 ng/mL, IL-10 10 ng/mL, NK20a 50 μg/mL pretreatment 30 min with LPS; fixed after 24 h
Protocol: Cell morphology was evaluated through atomic force microscopy (AFM) to observe the effects of the peptide on the cells. For AFM experiments, RAW 264.7 macrophages (5 × 10^4 cells/mL) were seeded on coverslips that had been treated with HCl to facilitate cell attachment. The cells were treated with lipopolysaccharides (LPS), NK20a, or IL-10 and incubated at 37 °C. After 24 h of incubation, the medium was removed, and the cells were washed twice with PBS. The cells were then fixed with 4% glutaraldehyde for 40 min. Finally, the fixation solution was removed, the samples were gently washed three times with Milli Q water, and then the samples were dried in a desiccator for 3 h. Cell morphology was imaged using an AFM instrument (Nanowizard, JPK BioAFM, Bruker Nano GmbH, Berlin, Germany). […] The AFM probes used were oxide-sharpened silicon nitride (Si3N4) probes (OMCL-TR400PB-1, Olympus, Tokyo, Japan) with a spring constant of 0.02 N/m. The SPM image processing software package version 3.1.6 (JPK BioAFM, Bruker Nano GmbH, Berlin, Germany) was used for processing and analysis of AFM image data.
Macrophages play a key role in tumor cell clearance. […] In this study, we examined the ability of NK20a to inhibit the anti-inflammatory effects of IL-10 on macrophages. The RAW 264.7 macrophage cell line was used in the evaluation, and the activation of macrophage cells was visualized through AFM. […]

[2] = system: BT-474 breast cancer cells; test: Therapeutic efficacy: cell viability (CCK-8), BT-474 breast cancer cells; format: cell-based, human
Excerpt: 5-FU is a cytotoxic chemotherapeutic drug used in the treatment of a variety of cancers, including breast cancer. […] The gold nanoparticles fabricated in this study may be used as a delivery material to deliver 5-FU into cancer cells. Here, we loaded 5-FU onto NK20a/Poly A15@Au and Poly A15@Au nanoparticles.

[3] = design: method as in 2 sources, ref 40 = [40]; PMID 22211087; doi:10.7150/ijms.9.33; 40. Kadoyama K Adverse event profiles of 5-fluorouracil and capecitabine: data mining of the public version of the FDA adverse event reporting system, AERS, and reproducibility of clinical observation ||| ref 49 = [49]; 49. Casale, J. & Patel, P. Fluorouracil [Updated 2022 Nov 24]. In StatPearls. (StatPearls Publishing, Treasure Island (FL), 2023).; settings: cited from earlier work
Excerpt: 5-FU is a cytotoxic chemotherapeutic drug used in the treatment of a variety of cancers, including breast cancer. […] The gold nanoparticles fabricated in this study may be used as a delivery material to deliver 5-FU into cancer cells. Here, we loaded 5-FU onto NK20a/Poly A15@Au and Poly A15@Au nanoparticles. […] It works by inhibiting the normal synthesis of thymidine by incorporating 5-FU metabolites into DNA and RNA, eventually leading to the arrest of synthetic pathways and subsequent apoptosis of treated cells[47],[48]. 5-FU is typically administered via intravenous injection. Infusions of 5-FU can be rapidly […] through the circulatory system, and prolonged administration of 5-FU is required to maintain a high level of 5-FU in the body, thereby enhancing clinical efficacy. However, its nonspecific toxicity, ...

[4] = target: T2, recombinant receptor human IL-10Ra protein (human, UniProt Q13651 22-235); test: BLI; steady-state analysis
T2 chain: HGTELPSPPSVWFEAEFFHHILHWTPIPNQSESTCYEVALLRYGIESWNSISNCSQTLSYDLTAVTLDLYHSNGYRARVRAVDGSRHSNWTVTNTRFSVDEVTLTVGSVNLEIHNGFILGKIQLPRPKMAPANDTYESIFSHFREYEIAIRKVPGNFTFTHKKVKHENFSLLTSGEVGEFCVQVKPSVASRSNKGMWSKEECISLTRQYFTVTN

[5] = target: T3, recombinant receptor human IL-10Ra protein (human, UniProt Q13651 22-235); test: BLI; ForteBio Octet RED96e, streptavidin biosensors loaded with 10 μg/mL recombinant human IL-10Ra (150 s); peptides at 3.12-100.0 μM, association 120 s; dissociation 120 s in PBS with 0.05% Tween20; settings: both partners purified
T3 construct: Interleukin-10 receptor subunit alpha, human, recombinant; also called IL-10 receptor
T3 sequence (looked up): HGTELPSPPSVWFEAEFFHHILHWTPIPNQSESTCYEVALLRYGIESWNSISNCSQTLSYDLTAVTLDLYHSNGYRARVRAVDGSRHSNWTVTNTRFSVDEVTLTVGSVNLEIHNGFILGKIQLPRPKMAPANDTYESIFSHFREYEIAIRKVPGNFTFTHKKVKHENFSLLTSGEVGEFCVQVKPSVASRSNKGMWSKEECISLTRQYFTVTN

receptor IL-1R1 = receptor IL-1R1 (UniProt P14778 18-569, Source and limits not given; taken as the recombinant extracellular domain (UniProt topological domain 18-336) by convention. Human inferred from the human IL-10Ra used in the same BLI assay. Likely); test: BLI; control receptor IL-1R1 in place of IL-10Ra; NK20a at various concentrations; settings: both partners purified
Sequence of receptor IL-1R1 (P14778 18-569): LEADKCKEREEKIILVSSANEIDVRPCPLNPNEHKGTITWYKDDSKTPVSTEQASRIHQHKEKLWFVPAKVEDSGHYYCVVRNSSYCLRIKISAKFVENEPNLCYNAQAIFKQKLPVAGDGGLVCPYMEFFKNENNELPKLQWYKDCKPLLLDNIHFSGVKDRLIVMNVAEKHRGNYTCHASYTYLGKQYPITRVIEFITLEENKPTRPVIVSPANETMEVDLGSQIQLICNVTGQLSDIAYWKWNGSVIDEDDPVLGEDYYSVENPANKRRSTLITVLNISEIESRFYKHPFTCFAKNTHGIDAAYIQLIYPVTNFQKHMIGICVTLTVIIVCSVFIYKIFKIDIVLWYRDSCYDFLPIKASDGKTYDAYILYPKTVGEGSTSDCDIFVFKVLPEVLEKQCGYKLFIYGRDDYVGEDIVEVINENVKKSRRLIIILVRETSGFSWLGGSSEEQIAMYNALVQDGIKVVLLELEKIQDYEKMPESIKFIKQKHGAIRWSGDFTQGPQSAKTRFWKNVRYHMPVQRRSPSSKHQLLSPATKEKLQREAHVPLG

[6] = BLI kinetic, human IL-10Ra, peptides 3.12-100.0 μM, association 120 s

**Q.** For “IL-10: immune regulatory cytokine with strong anti-inflammatory activity”, which “kd (dissociation constant)” value ([1]; BLI kinetic, human IL-10Ra, dissociation 120 s in PBS with 0.05% Tween20) is on record?
**A.** <1e-07 s⁻¹

**Q.** What about the “ka (association constant)” value [1, 6] of the same molecule?
**A.** 224000 M⁻¹ s⁻¹

**Q.** And the “cell proliferation / viability (in words)” value (BJAB B-lymphoma cells)?
**A.** did not significantly promote the proliferation of lymphoma B cells

**Q.** What about the “macrophage activation, morphology (in words)” value (RAW 264.7 macrophages) of the same molecule?
**A.** the activation of macrophages was suppressed; also recorded: inhibited the inflammation of LPS-stimulated cells

**Q.** With `O=c1[nH]cc(F)c(=O)[nH]1` [5-FU, 5-fluorouracil] as the molecule, how does the survival rate ([2]; BT-474, free 5-FU at 80 μM, 72 h, CCK-8) read?
**A.** more than 70%

**Q.** What about the “cell survival / therapeutic effect on BT-474 (in words)” value ([2]; CCK-8, 72 h, 5-FU free up to 80 μM) of the same molecule?
**A.** did not exhibit a significant therapeutic effect against the breast cancer cells

**Q.** What about the “membrane permeability (in words)” value [3] of the same molecule?
**A.** poor membrane permeability

**Q.** What about the “membrane permeability / half-life in plasma (in words)” value [3] of the same molecule?
**A.** poor membrane permeability, and short half-life in plasma

**Q.** With NMLRDLRDAFSRVKTFFQMK [NK20] as the molecule, how does the kon [1, 6] read?
**A.** 10200 M⁻¹ s⁻¹

**Q.** With “CPLNGSTVYGHLRHCLSCSG [CG20, random, control scramble peptide, reference compound]” as the molecule, how does the “binding to IL-10Ra (in words)” value ([1]; BLI) read?
**A.** not able to bind to IL-10Ra

**Q.** For NMLRDLRDAFSRVKTFFQMKDQLDN [NM25], which kon [1, 6] is on record?
**A.** 832 M⁻¹ s⁻¹

B1: Human interleukin-10 (IL-10) (ligand, UniProt P22301 19-178, looked up)
chain: SPGQGTQSENSCTHFPGNLPNMLRDLRDAFSRVKTFFQMKDQLDNLLLKESLLEDFKGYLGCQALSEMIQFYLEEVMPQAENQDPDIKAHVNSLGENLKTLRLRLRRCHRFLPCENKSKAVEQVKNAFNKLQEKGIYKAMSEFDIFINYIEAYMTMKIRN
notes: Interleukin-10, human; the methods of the BLI describe only the peptides as analytes; also called IL-10 cytokine
**Q.** What does the source list for B1?
**A.** Kd [4]: 1 µM; Kd [5]: < 1e-06 µM; koff [5]: < 1e-07 s⁻¹; kon [5]: 224000 M⁻¹ s⁻¹

B2: NK20 peptide (peptide)
peptide: NMLRDLRDAFSRVKTFFQMK
notes: truncation of NM25 (five C-terminal residues removed); stretch of human IL-10; source: synthetic peptide (GeneMark, GMbiolab Co., solid-phase)
**Q.** Which Kd [4] does the source give for B2 here?
**A.** 0.26 µM

**Q.** And the Kd [5]?
**A.** 21.4 µM

**Q.** What about the koff [5] of the same molecule?
**A.** 0.218 s⁻¹

B3: NK20a peptide (peptide)
peptide: NMLRNLRNAFSRVKTFFQMK
notes: NK20 with two Asp replaced by Asn; stretch of human IL-10; source: synthetic peptide (GeneMark, GMbiolab Co., solid-phase)
**Q.** For B3, which Kd [4] is on record?
**A.** 0.15 µM

**Q.** And the Kd (receptor IL-1R1)?
**A.** 28000 µM

**Q.** And the koff (receptor IL-1R1)?
**A.** 512 s⁻¹

**Q.** And the Kd [5]?
**A.** 11.2 µM

**Q.** What about the koff [5] of the same molecule?
**A.** 0.0909 s⁻¹

B4: NM25 peptide (peptide)
peptide: NMLRDLRDAFSRVKTFFQMKDQLDN
notes: human IL-10; also called original peptide; source: synthetic peptide (GeneMark, GMbiolab Co., solid-phase)
**Q.** For B4, which Kd [4] is on record?
**A.** 0.55 µM

**Q.** And the Kd [5]?
**A.** 41 µM

**Q.** What about the koff [5] of the same molecule?
**A.** 0.0341 s⁻¹
